Measured values: EP4692116A1 (Kexing Biopharm Co., Ltd., dated 2026)

T1: human GDF15 protein (Novoprotein, Cat# DRA26) (human, UniProt Q99988 197-308)
T1 construct: Bought recombinant protein; also called growth differentiation factor 15; MIC-1
T1 sequence (looked up): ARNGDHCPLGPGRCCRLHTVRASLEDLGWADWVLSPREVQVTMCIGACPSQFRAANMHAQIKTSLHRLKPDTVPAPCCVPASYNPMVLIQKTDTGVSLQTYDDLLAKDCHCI

T2: Human GDNF protein (Novoprotein, Cat# C226) (human, UniProt P39905 78-211)
T2 construct: Bought protein
T2 sequence (looked up): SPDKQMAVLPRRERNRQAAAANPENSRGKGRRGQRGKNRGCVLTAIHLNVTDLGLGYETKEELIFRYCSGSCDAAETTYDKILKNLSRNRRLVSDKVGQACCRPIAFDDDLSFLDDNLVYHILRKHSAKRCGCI

T3: GDF15-Biotin protein (KACTUS, Cat# GDF-HM215B) (human, UniProt Q99988 197-308, limits assumed, biotin (site not stated))
T3 construct: Bought biotinylated protein; also called human GDF15
T3 sequence (looked up): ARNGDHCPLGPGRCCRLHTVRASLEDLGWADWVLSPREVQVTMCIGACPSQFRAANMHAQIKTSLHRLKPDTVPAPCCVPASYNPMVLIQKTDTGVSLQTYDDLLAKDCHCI


Columns and labels:
[1] = target: human GDF15 protein (Novoprotein, Cat# DRA26) (human) (UniProt Q99988); assay: ELISA, human GDF15 coated, anti-human Fc-HRP detection
[2] = target: ARTN protein (Novoprotein, Cat# CR34) (human) (UniProt Q5T4W7); assay: ELISA, ARTN coated, antibody from 2,000 nM, anti-human Fc-HRP detection
Sequence of ARTN protein (Novoprotein, Cat# CR34) (human) (Q5T4W7 108-220 limits assumed): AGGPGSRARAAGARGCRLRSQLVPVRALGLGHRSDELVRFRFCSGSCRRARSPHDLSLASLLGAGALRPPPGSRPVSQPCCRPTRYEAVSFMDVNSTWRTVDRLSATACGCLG

[3] = target: GDF15-Biotin protein (KACTUS, Cat# GDF-HM215B) (human) (UniProt Q99988); assay: blocking ELISA: GFRAL coated, 20 ng/mL GDF15-Biotin with titrated antibody, Streptavidin-HRP
[4] = target: Human GDNF protein (Novoprotein, Cat# C226) (human) (UniProt P39905); assay: ELISA, GDNF coated, antibody from 2,000 nM, anti-human Fc-HRP detection
[5] = target: human GDF15 protein (Novoprotein, Cat# DRA26) (human) (UniProt Q99988); assay: cell-based or functional assay
[6] = target: T1, human GDF15 protein (Novoprotein, Cat# …); assay: ELISA, human GDF15 coated, anti-human Fc-HRP detection
[7] = target: T2, Human GDNF protein (Novoprotein, Cat# …); assay: ELISA, GDNF coated, antibody from 2,000 nM
[8] = target: T3, GDF15-Biotin protein (KACTUS, Cat# …); assay: blocking ELISA: GFRAL coated, 20 ng/mL GDF15-Biotin with titrated antibody, Streptavidin-HRP
[9] = target: T1, human GDF15 protein (Novoprotein, Cat# …); assay: cell-based or functional assay

Molecule | EC50 [1] [nM] | EC50 [2] [nM] | IC50 [3] [nM] | EC50 [4] [nM] | IC50 of GDF15 reporter gene activity [5] [nM] | EC50 [6] [nM] | binding result [7] | IC50 [8] [nM] | IC50 of GDF15 reporter gene activity [9] [nM]
PF-06946860 (Pfizer GDF15 monoclonal antibody, positive control) | 0.0974 | 97.1 | 0.11 | 278 | 0.0475 |  |  |  | 
CTL002 (CatalYm humanized GDF15 monoclonal antibody, positive control) | 0.0933 |  | 1.5 |  | 1.99 |  |  |  | 
LN06 GDF15 heavy chain single-domain antibody (full-length, VHH joined to human IgG1 Fc) (antibody, V domains shown, expressed in CHO cells; No light chain; also called LN06 full-length) VH: QLQLVESGGGLVQPGGSLRLSCVASGFTLDDYAIGWFRQAPGKGLEGVSCISSSDESTYYADSVKGRFTISRDNAKNTAYLQMNSLKPEDTAIYYCAADTECPVQVTSMAWGQGTQVTVSS |  |  |  |  |  | 0.0832 | binds | 0.175 | 0.0705
LN05 GDF15 heavy chain single-domain antibody (full-length, VHH joined to human IgG1 Fc) (antibody, V domains shown, expressed in CHO cells, Protein A purified; No light chain; also called LN05 full-length) VH: QVQLVESGGGLVQPGGSLRLSCAASGFTLDYYAIGWFRQAPGKGREGVSCISSNDGSTYYSDSVKGRFTTSRDNAKNTVYLQMNSLKPEDTAVYYCAADLTPCPVNPSVDHYWGQGTQVTVSS |  |  |  |  |  | 0.0912 | binds | 0.221 | 0.0778
LN13 GDF15 heavy chain single-domain antibody (full-length, VHH joined to human IgG1 Fc) (antibody, V domains shown, expressed in CHO cells; No light chain; also called LN13 full-length) VH: QLQLVESGGGLVQPGGSLRLSCAASGFTLDYYAIGWFRQAPGKGPEAVSCISSSDGSTYYSDSVKGRFTISRDNAKNTVYLQMNSLKPEDTAVYYCAAGEYGSDCPVQVGSWGQGTQVTVSS |  |  |  |  |  | 0.0858 | binds | 0.147 | 0.0719
LN25 GDF15 heavy chain single-domain antibody (full-length, VHH joined to human IgG1 Fc) (antibody, V domains shown, expressed in CHO cells; No light chain; also called LN25 full-length) VH: QLQLVESGGGEVQPGGSLRLSCAASGATLDDLSIGWFRQAPGKGLEGVSCISSSDGSTYYADSVKGRFTISRDNAKNTAYLQMNSLRPEDTAVYYCAADREDCPVQPWGIVAGTSRGQGTQVTVSS |  |  |  |  |  | 0.0892 | binds | 0.171 | 0.0735
LN14 GDF15 heavy chain single-domain antibody (full-length, VHH joined to human IgG1 Fc) (antibody, V domains shown, expressed in CHO cells; No light chain; also called LN14 full-length) VH: QVQLVESGGGLVQPGGSLRLACAASGFTLDAYAVGWFRQAPGKNPEGVSCISSSDGSAYYADSVKGRFTISRDNAKNTVYLQMNSLKPGDTAVYYCAADLSCPVQIATFHSRGQGTQVTVSS |  |  |  |  |  | 0.0988 |  | 0.16 | 0.0701
LN11 GDF15 heavy chain single-domain antibody (VHH joined to human IgG1 Fc) (antibody, V domains shown) VH: QVQLVESGGGLVQPGGSLRLSCAASGFTIRTYTMSWYRQAPGKERALVAYITPGGPTYHIDSVKGRFTISRNNAENTVYLQMNSLKPEDTAVYYCGNGFGSWGQGTQVTVSS |  |  |  |  |  | 0.382 |  |  | 
